This note sets out measurements from patent US20120093830A1 (published 2012).

Substitutions are numbered along the chain they refer to. “And” between values parts separate entries of the source, which are not always exact repeats. Equal entries are not always repeated.

The target in assay [1] is T1, human IL-13 (human, UniProt P35225 35-146).
T1 construct: also called hIL-13; interleukin-13
Nature of the assay: IL-13 sandwich ELISA (IL-13 binding to the capture antibody inhibited); block 3; sample #16 (2.6 mg/mL in PBS), material remaining in the cup after E-flow vibrating mesh nebuliser. On the procedure:
(§1) The plate was then incubated with TMB substrate (KPL, Gaithersburg, USA), and the reaction was stopped by the addition of HCl and the absorbance read at 450 nm.
(§2) Nebulisation was performed for approximately 3 minutes. 100 uL of protein samples (diluted to 1 mg/mL) were injected onto the SEC (TSKgel G2000SWXL, Tosoh Biosciences, Germany) column. The protein separation on SEC was performed at 0.5 mL/min for 45 minutes. PBS (phosphate buffered saline)+10% EtOH was used as mobile phase. The detection of eluting proteinaceous material was carried by on-line detection by UV (Abs 280 nm & 215 nm). […] The optimum MMAD is 3 μm and for deep lung delivery the desirable respirable fraction is the highest percentage of particles <5 μm. The LC+ (Pari) Jet nebuliser gives the better MMAD: MMAD values are lower when the buffer contains PEG; MMAD decreases as protein concentration increases.
(In general: In an ELISA, binding on a coated surface is turned into a signal by an enzyme label.)

In assay [2] the target is T1, human IL-13. Nature of the assay: IL-13 sandwich ELISA (IL-13 binding to the capture antibody inhibited); block 3; sample #15 (4.7 mg/mL, 25 mM sodium phosphate pH 7.5, 7% PEG1000, 1.2% sucrose), aerosolised material after LC+ jet nebuliser. The procedure:
as §1, §2

Assay [3] has as its target T1, human IL-13. The assay is described as follows: IL-13 sandwich ELISA (IL-13 binding to the capture antibody inhibited); block 2; sample #15 (4.7 mg/mL, 25 mM sodium phosphate pH 7.5, 7% PEG1000, 1.2% sucrose), aerosolised material after E-flow vibrating mesh nebuliser. The procedure:
as §1, §2

The target in assay [4] is T1, human IL-13. The assay is described as follows: IL-13 sandwich ELISA (IL-13 binding to the capture antibody inhibited); block 4; sample #16 (2.6 mg/mL in PBS), aerosolised material after E-flow vibrating mesh nebuliser. The procedure: as §1, §2
For assay [5], the target named is T1, human IL-13. Nature of the assay: IL-13 sandwich ELISA (IL-13 binding to the capture antibody inhibited); block 4; sample #16 (2.6 mg/mL in PBS), aerosolised material after LC+ jet nebuliser. On the procedure: as §1, §2
Assay [6] addresses T1, human IL-13. The assay is described as follows: IL-13 sandwich ELISA: dAb dilution series mixed with IL-13, binding of IL-13 to the coating (capture) antibody detected; block 2 of the table, sample not nebulised. The procedure: as §1, §2
Assay [7] has as its target T1, human IL-13. Nature of the assay: IL-13 sandwich ELISA (IL-13 binding to the capture antibody inhibited); block 4; sample #16 (2.6 mg/mL in PBS), material remaining in the cup after LC+ jet nebuliser. On the procedure:
as §1, §2

The target in assay [8] is T1, human IL-13. Nature of the assay: IL-13 sandwich ELISA: dAb dilution series mixed with IL-13, binding of IL-13 to the coating (capture) antibody detected; block 4 of the table, sample not nebulised. On the procedure:
as §1, §2

Assay [9] concerns the target T1, human IL-13. Nature of the assay: IL-13 sandwich ELISA (IL-13 binding to the capture antibody inhibited); block 3; sample #15 (4.7 mg/mL, 25 mM sodium phosphate pH 7.5, 7% PEG1000, 1.2% sucrose), material remaining in the cup after LC+ jet nebuliser. On the procedure: as §1, §2
Assay [10] concerns the target T1, human IL-13. Nature of the assay: cell-based or functional assay.
Another assay deals with cynomolgus IL-13 (cynomolgus, UniProt Q0PW92 21-132). Nature of the assay: cell-based or functional assay.
cynomolgus IL-13, sequence (Q0PW92 entry or part of it): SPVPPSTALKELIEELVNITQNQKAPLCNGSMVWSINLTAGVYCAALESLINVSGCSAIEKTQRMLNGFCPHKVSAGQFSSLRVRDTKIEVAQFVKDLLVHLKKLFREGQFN
Assay [11] has as its target T1, human IL-13. The assay is described as follows: IL-13 sandwich ELISA: dAb dilution series mixed with IL-13, binding of IL-13 to the coating (capture) antibody detected; block 1 of the table, sample not nebulised. The procedure: as §1, §2
Assay [12] concerns the target T1, human IL-13. Nature of the assay: IL-13 sandwich ELISA (IL-13 binding to the capture antibody inhibited); block 2; sample #15 (4.7 mg/mL, 25 mM sodium phosphate pH 7.5, 7% PEG1000, 1.2% sucrose), material remaining in the cup after E-flow vibrating mesh nebuliser. On the procedure: as §1, §2
In assay [13] the target is T1, human IL-13. The assay is described as follows: IL-13 sandwich ELISA (IL-13 binding to the capture antibody inhibited); block 2; sample #14 (2.3 mg/ml, 25 mM sodium phosphate pH 7.5, 7% PEG1000, 1.2% sucrose), aerosolised material after LC+ jet nebuliser. The procedure:
as §1, §2

For assay [14], the target named is T1, human IL-13. The assay is described as follows: IL-13 sandwich ELISA (IL-13 binding to the capture antibody inhibited); block 1; sample #14 (2.3 mg/ml, 25 mM sodium phosphate pH 7.5, 7% PEG1000, 1.2% sucrose), aerosolised material after E-flow vibrating mesh nebuliser. On the procedure:
as §1, §2

In assay [15] the target is T1, human IL-13. Nature of the assay: IL-13 sandwich ELISA: dAb dilution series mixed with IL-13, binding of IL-13 to the coating (capture) antibody detected; block 3 of the table, sample not nebulised. On the procedure:
as §1, §2

Assay [16] deals with T1, human IL-13. Nature of the assay: IL-13 sandwich ELISA (IL-13 binding to the capture antibody inhibited); block 1; sample #14 (2.3 mg/ml, 25 mM sodium phosphate pH 7.5, 7% PEG1000, 1.2% sucrose), material remaining in the cup after LC+ jet nebuliser. The procedure:
as §1, §2

In assay [17] the target is T1, human IL-13. Nature of the assay: IL-13 sandwich ELISA: dAb dilution series mixed with IL-13, binding of IL-13 to the coating (capture) antibody detected; block 4 of the table, standard.
Assay [18] has as its target T1, human IL-13. The assay is described as follows: IL-13 sandwich ELISA: dAb dilution series mixed with IL-13, binding of IL-13 to the coating (capture) antibody detected; block 3 of the table, standard.
Assay [19] deals with T1, human IL-13. The assay is described as follows: IL-13 sandwich ELISA: dAb dilution series mixed with IL-13, binding of IL-13 to the coating (capture) antibody detected; block 1 of the table, standard.
Assay [20] deals with T1, human IL-13. The assay is described as follows: IL-13 sandwich ELISA: dAb dilution series mixed with IL-13, binding of IL-13 to the coating (capture) antibody detected; block 2 of the table, standard.

T1 sequence (P35225 35-146 limits assumed): as the sequence (Q0PW92 entry or part of it) above, with S1G, K10R, V42M, N67S, R83H, V100L counted along it

B1: DOM10-53-474 (single domain antibody (dAb), V domains shown)
VH: GVQLLESGGGLVQPGGSLRLSCAASGFTFAWYDMGWVRQAPGKGLEWVSSIDWHGEVTYYADSVKGRFTISRDNSKNTLYLQMNSLRAEDTAVYYCATAEDEPGYDYWGQGTLVTVSS
notes: Soluble anti-IL-13 domain antibody monomer (immunoglobulin single variable domain); also called anti-IL-13 dAb
For the molecule B1, the IC50 (commonly the concentration at which inhibition is half-maximal) is 0.0224 nM in the assay with human IL-13 [1]; 0.0149 nM in the assay with human IL-13 [2]; 0.0185 nM in the assay with human IL-13 [3]; 0.0351 nM in the assay with human IL-13 [4]; 0.023 nM with human IL-13 [5]; 0.0356 nM in the assay with human IL-13 [6]. In addition, the half-inhibitory concentration (IC50) with human IL-13 [7] turned out to be 0.0339 nM; with human IL-13 [8], 0.0269 nM; with human IL-13 [9] it was 0.0129 nM; with human IL-13 [11], 0.0458 nM; with human IL-13 [12], 0.0214 nM; with human IL-13 [13], 0.0348 nM. In addition, the IC50 with human IL-13 [14] was determined as 0.0322 nM; with human IL-13 [15], 0.0289 nM; with human IL-13 [16], 0.0317 nM. The “EC50, FIG. 1A: inhibition of human IL-13 (3 ng/ml) stimulated alkaline phosphatase production in HEK STAT6 cells” value with human IL-13 [10] stood at 0.72 nM. Moreover, the “EC50, FIG. 1B: inhibition of cynomolgus IL-13 (3 ng/ml) stimulated alkaline phosphatase production in HEK STAT6 cells” value in the assay with cynomolgus IL-13 is 10.8 nM.

B2: DOM10-53-344 (Std) (single domain antibody (dAb), V domains shown)
VH: B1 VH with T28I
For B2, the IC50 with human IL-13 [17] is 0.0671 nM; with human IL-13 [18], 0.0455 nM; in the assay with human IL-13 [19] it was 0.0716 nM; with human IL-13 [20], 0.125 nM.

B3: DOM10-275-78 (single domain antibody (dAb), V domains shown)
VH: EVQLLESGGGLVQPGGSLRLSCVASGFTFDVAEMDWVRQAPGKGLEWVSTISPSRRGTYYADSVKGRFTISRDNSKNTLYLQMNSLRAEDTAVYYCAKAYTGRSLWGPGTLVTVSS
On to B3, for which, in the assay with human IL-13 [10], the “EC50, FIG. 1A: inhibition of human IL-13 (3 ng/ml) stimulated alkaline phosphatase production in HEK STAT6 cells” value is 2.42 nM and 2.65 nM. Also, the “EC50, FIG. 1B: inhibition of cynomolgus IL-13 (3 ng/ml) stimulated alkaline phosphatase production in HEK STAT6 cells” value with cynomolgus IL-13 is 1.37 nM.
